Laboratory results as given in US20220363718A1 (Bicycle, published 2022).
Blank lines part the entries; values can stand above or below the binder they belong to.

Legend:
Biotinylated human TSLP [1] = target: T1, Biotinylated human TSLP (human, biotinylated); assay: SPR, biotinylated hTSLP on streptavidin chip; Example 157, Ac-(SEQ ID NO: 115)
T1 construct: also called hTSLP; thymic stromal lymphopoietin

Biotinylated human TSLP [2] = target: T1, Biotinylated human TSLP; assay: SPR, biotinylated hTSLP on streptavidin chip; Example 146, Ac-(SEQ ID NO: 105)
Biotinylated human TSLP [3] = target: T1, Biotinylated human TSLP; assay: SPR, biotinylated hTSLP on streptavidin chip; Example 154, Ac-(SEQ ID NO: 113)
Biotinylated human TSLP [4] = target: T1, Biotinylated human TSLP; assay: SPR, biotinylated hTSLP on streptavidin chip; Example 11, Ac-(SEQ ID NO: 9)
Biotinylated human TSLP [5] = target: T1, Biotinylated human TSLP; assay: SPR, biotinylated hTSLP on streptavidin chip; Example 148, Ac-(SEQ ID NO: 107)
Biotinylated human TSLP [6] = target: T1, Biotinylated human TSLP; assay: SPR, biotinylated hTSLP on streptavidin chip; Example 8, Ac-(SEQ ID NO: 6)
Biotinylated human TSLP [7] = target: T1, Biotinylated human TSLP; assay: SPR, biotinylated hTSLP on streptavidin chip; Example 158, Ac-(SEQ ID NO: 116)
Biotinylated human TSLP [8] = target: T1, Biotinylated human TSLP; assay: SPR, biotinylated hTSLP on streptavidin chip; Example 153, Ac-(SEQ ID NO: 112)
Biotinylated human TSLP [9] = target: T1, Biotinylated human TSLP; assay: SPR, biotinylated hTSLP on streptavidin chip; Example 4, Ac-(SEQ ID NO: 4)
Biotinylated human TSLP [10] = target: T1, Biotinylated human TSLP; assay: SPR, biotinylated hTSLP on streptavidin chip; Example 160, Ac-(SEQ ID NO: 118)
Biotinylated human TSLP [11] = target: T1, Biotinylated human TSLP; assay: SPR, biotinylated hTSLP on streptavidin chip; Example 14, Ac-(SEQ ID NO: 12)

T1 sequence (chain, as listed by the source limits assumed): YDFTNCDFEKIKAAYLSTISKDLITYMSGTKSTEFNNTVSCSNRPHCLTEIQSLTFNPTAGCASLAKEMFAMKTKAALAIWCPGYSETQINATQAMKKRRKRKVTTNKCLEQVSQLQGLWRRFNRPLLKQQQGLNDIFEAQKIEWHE

- Kd (Biotinylated human TSLP [1]): 3900 nM
B1: Example 157 (peptide)
peptide: CQWLEDCWRGXC
modifications: not fully specified; N-term acetyl; CQWLEDCWRG[4-PyrA]C as printed; 3 Cys on TATA

- Kd (Biotinylated human TSLP [7]): 5400 nM
B5: Example 158 (peptide)
peptide: CQWLEDCWRGXC
modifications: not fully specified; N-term acetyl; CQWLEDCWRG[3-PyrA]C as printed; 3 Cys on TATA

- Kd (Biotinylated human TSLP [10]): 10000 nM
B8: Example 160 (peptide)
peptide: CQWXEDCWRGXC
modifications: not fully specified; N-term acetyl; CQW[4-MenL]EDCWRG[4-FPhe]C as printed; 3 Cys on TATA

More lines, now with the values behind:

Binder: CQWLEDCWRGXC (N-term acetyl; CQWLEDCWRG[2PyrA]C as printed; 3 Cys on TATA) [Example 146]
- Kd (Biotinylated human TSLP [2]): 910 nM

B2: Example 154 (peptide)
peptide: CQWXEDCWRGXC
modifications: not fully specified; N-term acetyl; CQW[LMe]EDCWRG[4-FPhe]C as printed; 3 Cys on TATA
- Kd (Biotinylated human TSLP [3]): 2900 nM

B3: Example 11 (peptide)
peptide: CQWLEDCWRGXC
modifications: not fully specified; N-term acetyl; CQWLEDCWRG[3,4diClPhe]C as printed; 3 Cys on TATA
- Kd (Biotinylated human TSLP [4]): 5.8 nM

Binder: CQWLEDCWRGXC (N-term acetyl; CQWLEDCWRG[BnA]C as printed; 3 Cys on TATA) [Example 148]
- Kd (Biotinylated human TSLP [5]): 1100 nM

B4: Example 8 (peptide)
peptide: CQWLEDCWRGXC
modifications: not fully specified; N-term acetyl; CQWLEDCWRG[4F3ClPhe]C as printed; 3 Cys on TATA
- Kd (Biotinylated human TSLP [6]): 4 nM

B6: Example 153 (peptide)
peptide: CQWLEDCWRGXC
modifications: not fully specified; N-term acetyl; CQWLEDCWRG[PentFPhe]C as printed; 3 Cys on TATA
- Kd (Biotinylated human TSLP [8]): 2700 nM

B7: Example 4 (peptide)
peptide: CQWXEDCWRGXC
modifications: not fully specified; N-term acetyl; CQW[tBuA]EDCWRG[4-FPhe]C as printed; 3 Cys on TATA
- Kd (Biotinylated human TSLP [9]): 2.7 nM

Binder: CQWLEDCWRGXC (N-term acetyl; CQWLEDCWRG[4-ClPhe]C as printed; 3 Cys on TATA) [Example 14]
- Kd (Biotinylated human TSLP [11]): 6 nM
